# Test results published in patent US20260274955A1 (JANUX THERAPEUTICS, published 2026).
# Biological target: T1, Anti-CD28 Fab (SEQ ID NOs: 202, 203)
# T1 construct: biotinylated and captured on neutravidin coated plates in the phage ELISA
# Assay: phage ELISA on captured biotinylated Fab;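 also: wells preblocked with or without CD28 antigen, then clonal phage supernatant added briefly, washed, and bound phage read out by ELISA using HRP-linked anti-M13 antibody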
# Method: (§1) Clonal phage were harvested as crude supernatants and screened via standard ELISAs. […] Prior to the addition of clonal phage, wells were incubated with blocking buffer and CD28 antigen or blocking buffer alone. Without washing or aspirating, clonal phage supernatants were then added to the wells and incubated for a short time. Wells were then washed followed by detection of bound phage using a horse radish conjugated anti-M13 antibody.
# T1 sequence (VH, as listed by the source, chain 1 of 2): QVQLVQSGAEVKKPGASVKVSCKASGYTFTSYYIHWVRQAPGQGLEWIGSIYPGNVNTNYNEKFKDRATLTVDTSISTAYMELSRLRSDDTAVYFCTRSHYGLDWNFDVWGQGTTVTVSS
# T1 sequence (VL, as listed by the source, chain 2 of 2): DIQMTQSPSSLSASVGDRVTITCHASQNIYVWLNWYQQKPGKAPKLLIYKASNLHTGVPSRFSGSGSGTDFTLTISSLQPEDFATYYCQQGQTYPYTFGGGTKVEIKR
row,Binder,Anti-CD28 Fab signal
1,YCDGHSPEYMTKCL [Phage-294],1.93
2,YCDGHVPQYMAKCL [Phage-203],2.1
3,YCAGHLPQYMEKCM [Phage-206],2.09
4,YCEGHLPQYIPKCL [Phage-193],2.12
5,YCDGHAEQYMEKCL [Phage-215],2.08
6,YCSGHLPEYMSKCL [Phage-245],2.03
7,YCEGHLPEYMSKCL [Phage-181],2.15
8,YCSGHLPEYMEKCL [Phage-210],2.09
9,YCAGHSPEYMGKCM [Phage-209],2.09
10,YCDGHTQEYIAKCL [Phage-167],2.17
11,YCDGHSQEYIAKCL [Phage-265],1.99
12,YCQGHLPQYIAKCL [Phage-205],2.09
13,YCAGHTQEYMSKCL [Phage-201],2.1
14,YCAGHLPEHIGKCL [Phage-207],2.09
15,YCMGHSEEYMQKCL [Phage-196],2.11
16,YCEGHSLEYIGKCL [Phage-186],2.14
17,YCEGHSDEYMLKCL [Phage-223],2.06
18,YCEGHLPQYLAKCL [Phage-190],2.12
19,YCEGHAPQYIQKCL [Phage-220],2.07
20,YCLGHAPQYIQKCL [Phage-243],2.04
21,YCEGHTAEYLQKCL [Phage-208],2.09
22,YCDGHSDEYMAKCL [Phage-185],2.14
23,YCAGHLPEYMQKCL [Phage-182],2.15
24,YCAGHLEIYMQKCL [Phage-211],2.09
25,YCDGHELRYMAKCL [Phage-221],2.07
26,YCAGHLPLYMEKCL [Phage-191],2.12
27,YCDGHLPVYMAKCL [Phage-195],2.11
28,YCDGHLPAYMAKCL [Phage-222],2.06

row,Binder,Anti-CD28 Fab signal
1,YCDGHIPIYMSKCL [Phage-189],2.13
2,YCDGHSPIYMSKCL [Phage-260],2
3,YCEGHSPEYMSHCF [Phage-216],2.08
4,YCEGHSMQHMAKCL [Phage-217],2.07
5,YCDGHLEEYMAKCL [Phage-198],2.11
6,YCEGHSAEYMAKCL [Phage-184],2.14
7,YCDGHSAEYMSKCL [Phage-204],2.1
8,YCDGHASEYMWKCL [Phage-286],1.94
9,YCEGHSAEYMNKCL [Phage-226],2.06
10,YCEGHSMEYMAKCL [Phage-295],1.92
11,YCEGHSAEYMWKCL [Phage-213],2.08
12,YCDGHASEYMMKCL [Phage-237],2.05
13,YCDGHSSEYMWKCL [Phage-244],2.03
14,YCDGHSAEYMMKCL [Phage-192],2.12
15,YCVGHLPQYMEKCL [Phage-267],1.98
16,YCEGHSPQYMQKCL [Phage-202],2.1
17,YCEGHSPQYMSKCL [Phage-241],2.04
18,YCAGHLPEYIDKCL [Phage-219],2.07
19,YCAGHLPEYISKCL [Phage-188],2.14
20,YCAGHMPEYIDKCL [Phage-296],1.92
21,YCSGHAPIYMAKCL [Phage-200],2.1
22,YCSGHAPEYMAKCL [Phage-287],1.94
23,YCDGHLGIYMWKCL [Phage-183],2.14
24,YCDGHLGIYMTKCL [Phage-268],1.98
25,YCDGHQPEYMAKCL [Phage-187],2.14
26,YCDGHAQEFMSKCL [Phage-218],2.07
27,YCEGHAPEHMAKCL [Phage-214],2.08

# Biological target: T1, Anti-CD28 Fab (SEQ ID NOs: 202, 203)
# Assay: phage ELISA on captured Fab, wells pre-incubated with CD28 antigen (competitor: CD28);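 also: bound clonal phage detected with an HRP-linked anti-M13 antibody, compared against wells that received blocking buffer alone without CD28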
# Method: as §1
row,Binder,Anti-CD28 Fab signal in the presence of CD28
1,YCDGHSPEYMTKCL [Phage-294],0.07
2,YCDGHVPQYMAKCL [Phage-203],0.07
3,YCAGHLPQYMEKCM [Phage-206],0.08
4,YCEGHLPQYIPKCL [Phage-193],0.07
5,YCDGHAEQYMEKCL [Phage-215],0.07
6,YCSGHLPEYMSKCL [Phage-245],0.09
7,YCEGHLPEYMSKCL [Phage-181],0.07
8,YCSGHLPEYMEKCL [Phage-210],0.09
9,YCAGHSPEYMGKCM [Phage-209],0.06
10,YCDGHTQEYIAKCL [Phage-167],0.06
11,YCDGHSQEYIAKCL [Phage-265],0.07
12,YCQGHLPQYIAKCL [Phage-205],0.08
13,YCAGHTQEYMSKCL [Phage-201],0.05
14,YCAGHLPEHIGKCL [Phage-207],0.07
15,YCMGHSEEYMQKCL [Phage-196],0.07
16,YCEGHSLEYIGKCL [Phage-186],0.06
17,YCEGHSDEYMLKCL [Phage-223],0.07
18,YCEGHLPQYLAKCL [Phage-190],0.1
19,YCEGHAPQYIQKCL [Phage-220],0.07
20,YCLGHAPQYIQKCL [Phage-243],0.14
21,YCEGHTAEYLQKCL [Phage-208],0.1
22,YCDGHSDEYMAKCL [Phage-185],0.07
23,YCAGHLPEYMQKCL [Phage-182],0.09
24,YCAGHLEIYMQKCL [Phage-211],0.08
25,YCDGHELRYMAKCL [Phage-221],0.07
26,YCAGHLPLYMEKCL [Phage-191],0.06
27,YCDGHLPVYMAKCL [Phage-195],0.09
28,YCDGHLPAYMAKCL [Phage-222],0.12

row,Binder,Anti-CD28 Fab signal in the presence of CD28
1,YCDGHIPIYMSKCL [Phage-189],0.08
2,YCDGHSPIYMSKCL [Phage-260],0.09
3,YCEGHSPEYMSHCF [Phage-216],0.09
4,YCEGHSMQHMAKCL [Phage-217],0.08
5,YCDGHLEEYMAKCL [Phage-198],0.09
6,YCEGHSAEYMAKCL [Phage-184],0.06
7,YCDGHSAEYMSKCL [Phage-204],0.06
8,YCDGHASEYMWKCL [Phage-286],0.06
9,YCEGHSAEYMNKCL [Phage-226],0.07
10,YCEGHSMEYMAKCL [Phage-295],0.07
11,YCEGHSAEYMWKCL [Phage-213],0.09
12,YCDGHASEYMMKCL [Phage-237],0.06
13,YCDGHSSEYMWKCL [Phage-244],0.06
14,YCDGHSAEYMMKCL [Phage-192],0.08
15,YCVGHLPQYMEKCL [Phage-267],0.08
16,YCEGHSPQYMQKCL [Phage-202],0.06
17,YCEGHSPQYMSKCL [Phage-241],0.07
18,YCAGHLPEYIDKCL [Phage-219],0.08
19,YCAGHLPEYISKCL [Phage-188],0.08
20,YCAGHMPEYIDKCL [Phage-296],0.06
21,YCSGHAPIYMAKCL [Phage-200],0.07
22,YCSGHAPEYMAKCL [Phage-287],0.06
23,YCDGHLGIYMWKCL [Phage-183],0.08
24,YCDGHLGIYMTKCL [Phage-268],0.08
25,YCDGHQPEYMAKCL [Phage-187],0.07
26,YCDGHAQEFMSKCL [Phage-218],0.12
27,YCEGHAPEHMAKCL [Phage-214],0.1
